Values of other authors in article PMC9842050.
Where two headings read alike, the source gives them in different places.

Experiments:
[1] = target: CXCR4 (Homo sapiens) (UniProt P61073)
[2] = target: CXCR4 (Homo sapiens) (UniProt P61073); remark: listed apart in the source
[3] = target: GLP-1R (Homo sapiens) (UniProt P43220); assay: radioligand competition binding
[4] = target: GLP-1R (Homo sapiens) (UniProt P43220); assay: radioligand competition binding; remark: listed apart in the source

Sequence of GLP-1R (Homo sapiens) (P43220 24-463): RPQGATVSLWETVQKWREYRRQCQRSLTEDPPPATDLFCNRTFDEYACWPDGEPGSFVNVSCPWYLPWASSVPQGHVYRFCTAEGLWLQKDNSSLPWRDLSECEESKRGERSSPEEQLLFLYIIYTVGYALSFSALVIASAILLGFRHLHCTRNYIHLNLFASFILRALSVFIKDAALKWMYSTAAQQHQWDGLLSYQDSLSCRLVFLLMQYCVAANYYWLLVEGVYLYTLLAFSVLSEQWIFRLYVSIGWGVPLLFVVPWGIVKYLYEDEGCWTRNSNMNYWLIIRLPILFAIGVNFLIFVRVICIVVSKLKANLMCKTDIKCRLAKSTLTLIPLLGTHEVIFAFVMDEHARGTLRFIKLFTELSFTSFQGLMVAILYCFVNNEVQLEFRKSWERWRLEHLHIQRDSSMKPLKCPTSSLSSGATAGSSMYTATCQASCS
Sequence of CXCR4 (Homo sapiens) (P61073 whole entry): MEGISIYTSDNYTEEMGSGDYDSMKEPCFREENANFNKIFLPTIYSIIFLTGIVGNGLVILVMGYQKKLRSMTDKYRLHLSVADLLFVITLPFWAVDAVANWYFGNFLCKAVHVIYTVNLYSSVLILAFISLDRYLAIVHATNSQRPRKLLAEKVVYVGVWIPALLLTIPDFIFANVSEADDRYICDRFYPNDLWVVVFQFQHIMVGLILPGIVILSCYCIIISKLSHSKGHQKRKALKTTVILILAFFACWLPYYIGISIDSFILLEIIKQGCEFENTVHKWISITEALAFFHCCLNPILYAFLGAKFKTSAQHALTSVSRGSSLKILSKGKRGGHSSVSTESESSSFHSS
Sequence of SDF-1α (P48061 24-88): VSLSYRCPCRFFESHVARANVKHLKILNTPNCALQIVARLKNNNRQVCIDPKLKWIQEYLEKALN
Sequence of exendin-4 (P26349 48-86): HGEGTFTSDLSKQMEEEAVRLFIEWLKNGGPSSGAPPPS

Kd [1] [nM] | Kd [2] [nM] | Substance | Kd [3] [nM] | Kd [4] [nM]
8.4 | 1.4 | SDF-1α (from UniProt P48061) |  | 
 |  | exendin-4 (from UniProt P26349) | 54.3 | 37.8
